From FireProtDB (doi:10.1093/hmg/ddv370)

B1: Guanylyl cyclase-activating protein 1, P43080 (parent)
chain: MGNVMEGKSVEELSSTECHQWYKKFMTECPSGQLTLYEFRQFFGLKNLSPSASQYVEQMFETFDFNKDGYIDFMEYVAALSLVLKGKVEQKLRWYFKLYDVDGNGCIDRDELLTIIQAIRAINPCSDTTMTAEEFTDTVFSKIDVNGDGELSLEEFIEGVQKDQMLLDTLTRSLDLTRIVRRLQNGEQDEEGADEAAEAAG

Variants of: B1
Settings: Homo sapiens; pH 7.5; Thermal; CD; Tris-HCl; KCl; transition: 2; whole UniProt chain shown

Variant	change of melting temperature, mutant - wild type (higher = more stable) [°C]
MGNVMEGKSVEELSSTECHQWYKKFMTECPSGQLTLYEFRQFFGLKNLSPSASQYVEQMFETFDFNKDGYIDFMEYVAALSLVLKGKVEQKLRWYFKLYDVDGNGCTDRDELLTIIQAIRAINPCSDTTMTAEEFTDTVFSKIDVNGDGELSLEEFIEGVQKDQMLLDTLTRSLDLTRIVRRLQNGEQDEEGADEAAEAAG [I107T]	-8.1
MGNVMEGKSVEELSSTECHQWYKKFMTECPSGQLTLYEFRQFFGLKNLSPSASQYVEQMFETFDFNKDGYIDFMEYVAALSLVFKGKVEQKLRWYFKLYDVDGNGCIDRDELLTIIQAIRAINPCSDTTMTAEEFTDTVFSKIDVNGDGELSLEEFIEGVQKDQMLLDTLTRSLDLTRIVRRLQNGEQDEEGADEAAEAAG [L84F]	-9.3

Same assay, conditions: Homo sapiens; pH 7.5; Thermal; CD; Tris-HCl; KCl; transition: 3; whole UniProt chain shown

Variant	change of melting temperature, mutant - wild type (higher = more stable) [°C]
MGNVMEGKSVEELSSTECHQWYKKFMTECPSGQLTLYEFRQFFGLKNLSPSASQYVEQMFETFDFNKDGYIDFMEYVAALSLVLKGKVEQKLRWYFKLYDVDGNGCTDRDELLTIIQAIRAINPCSDTTMTAEEFTDTVFSKIDVNGDGELSLEEFIEGVQKDQMLLDTLTRSLDLTRIVRRLQNGEQDEEGADEAAEAAG [I107T]	-8.1
